These results are taken from patent US20260035431A1 (CAVALRY BIOSCIENCES, published 2026).

What all share (test): cell-based or functional assay
Experiment [1] addresses T1, IGF1 receptor (IGF1R) on DU145 cells or immortalized human meibomian gland epithelial cells (human, UniProt P08069 31-1367).
Another experiment deals with T2, IGFBP2 (UniProt P18065 37-325, limits assumed).
T2 sequence (looked up): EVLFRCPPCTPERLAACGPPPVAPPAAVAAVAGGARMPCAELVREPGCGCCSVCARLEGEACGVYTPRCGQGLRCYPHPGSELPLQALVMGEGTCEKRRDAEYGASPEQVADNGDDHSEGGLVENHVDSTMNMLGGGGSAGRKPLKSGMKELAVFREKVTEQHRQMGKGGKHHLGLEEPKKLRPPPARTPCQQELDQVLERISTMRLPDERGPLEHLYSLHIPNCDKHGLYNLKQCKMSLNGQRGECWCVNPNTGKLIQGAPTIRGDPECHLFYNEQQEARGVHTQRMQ

The next experiment concerns the target IGFBP3 (UniProt P17936 28-291).
Experiment [2] has as its target T1, IGF1 receptor (IGF1R) on DU145 cells or …. This is another data set of the same source.

T1 sequence (P08069 31-1367): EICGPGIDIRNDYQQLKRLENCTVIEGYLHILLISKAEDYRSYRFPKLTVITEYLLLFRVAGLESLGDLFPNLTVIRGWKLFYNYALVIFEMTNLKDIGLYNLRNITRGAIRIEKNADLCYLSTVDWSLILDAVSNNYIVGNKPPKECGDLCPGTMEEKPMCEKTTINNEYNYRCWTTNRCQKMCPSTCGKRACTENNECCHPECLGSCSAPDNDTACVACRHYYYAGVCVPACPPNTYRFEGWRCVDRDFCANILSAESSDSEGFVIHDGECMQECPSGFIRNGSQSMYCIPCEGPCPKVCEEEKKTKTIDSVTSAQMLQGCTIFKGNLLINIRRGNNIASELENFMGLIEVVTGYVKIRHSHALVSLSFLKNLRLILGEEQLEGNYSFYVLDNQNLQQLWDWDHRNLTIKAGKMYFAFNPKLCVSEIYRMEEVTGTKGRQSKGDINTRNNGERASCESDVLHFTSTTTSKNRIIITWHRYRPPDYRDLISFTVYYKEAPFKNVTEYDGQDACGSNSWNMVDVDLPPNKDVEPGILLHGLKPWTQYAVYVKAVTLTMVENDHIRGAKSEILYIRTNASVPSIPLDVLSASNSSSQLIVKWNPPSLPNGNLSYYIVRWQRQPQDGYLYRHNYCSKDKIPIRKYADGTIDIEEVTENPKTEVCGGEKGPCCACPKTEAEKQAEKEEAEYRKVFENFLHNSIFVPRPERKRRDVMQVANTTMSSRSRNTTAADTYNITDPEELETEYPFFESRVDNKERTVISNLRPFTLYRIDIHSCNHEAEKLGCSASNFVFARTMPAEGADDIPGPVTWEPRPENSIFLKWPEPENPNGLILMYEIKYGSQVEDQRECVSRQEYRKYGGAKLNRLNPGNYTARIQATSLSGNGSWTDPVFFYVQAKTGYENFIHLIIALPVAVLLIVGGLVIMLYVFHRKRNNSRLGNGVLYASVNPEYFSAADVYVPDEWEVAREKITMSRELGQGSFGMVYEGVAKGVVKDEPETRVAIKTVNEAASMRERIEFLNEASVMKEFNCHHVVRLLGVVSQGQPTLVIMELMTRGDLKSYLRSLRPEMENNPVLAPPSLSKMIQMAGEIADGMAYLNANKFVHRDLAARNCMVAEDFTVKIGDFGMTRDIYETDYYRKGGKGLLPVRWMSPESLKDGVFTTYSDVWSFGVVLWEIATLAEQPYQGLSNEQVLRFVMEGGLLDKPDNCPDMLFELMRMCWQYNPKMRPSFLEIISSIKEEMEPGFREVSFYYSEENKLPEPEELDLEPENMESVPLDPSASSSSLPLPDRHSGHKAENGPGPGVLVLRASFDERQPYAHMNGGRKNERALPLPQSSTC
IGFBP3, sequence (P17936 28-291 limits assumed): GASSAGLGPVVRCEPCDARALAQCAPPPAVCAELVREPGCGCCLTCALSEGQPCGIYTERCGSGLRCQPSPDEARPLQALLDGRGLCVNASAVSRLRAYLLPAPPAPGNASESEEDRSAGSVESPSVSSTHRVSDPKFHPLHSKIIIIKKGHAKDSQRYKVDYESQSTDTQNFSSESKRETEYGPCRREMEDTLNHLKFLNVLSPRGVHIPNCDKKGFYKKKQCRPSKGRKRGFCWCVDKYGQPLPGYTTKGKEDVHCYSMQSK

B1: IGF-1 Des1-3 R37X (ligand)
chain: TLCGAELVDALQFVCGDRGFYFNKPTGYGSSSRAPQTGIVDECCFRSCDLRRLEMYCAPLKPAKSA
Regarding B1, the “EC50, AKT S473 phosphorylation in DU145 cells” value in experiment [1] is 4.1 nM.

B2: E3R-F49L-D12A (ligand)
chain: GPRTLCGAELVAALQFVCGDRGFYFNKPTGYGSSSRRAPQTGIVDECCLRSCDLRRLEMYCAPLKPAKSA
Consider B2, for which the “% Activity compared to no IGFBP, 4x BP2” value with IGFBP2 was found to be 357%. Further, the “% Activity compared to no IGFBP, 4x BP3” value with IGFBP3 was determined as 342%. In addition, the “EC50 (nM), P-AKT in DU145 cells” value in experiment [2] came to 17.7 nM.

B3: E3R-F49L-L54A (ligand)
chain: GPRTLCGAELVDALQFVCGDRGFYFNKPTGYGSSSRRAPQTGIVDECCLRSCDARRLEMYCAPLKPAKSA
Take B3: the “% Activity compared to no IGFBP, 4x BP2” value with IGFBP2 was found to be 175%. The “% Activity compared to no IGFBP, 4x BP3” value with IGFBP3 turned out to be 239%. For the same molecule, the “EC50 (nM), P-AKT in DU145 cells” value in experiment [2] worked out at 11.4 nM.

B4: E3R-F49L-D12A-L54A (ligand)
chain: GPRTLCGAELVAALQFVCGDRGFYFNKPTGYGSSSRRAPQTGIVDECCLRSCDARRLEMYCAPLKPAKSA
With B4, in the experiment with IGFBP2, the “% Activity compared to no IGFBP, 4x BP2” value worked out at 456%. Moreover, the “% Activity compared to no IGFBP, 4x BP3” value in the experiment with IGFBP3 was found to be 344%. Moreover, the “EC50 (nM), P-AKT in DU145 cells” value in experiment [2] is 68.1 nM.

B5: IGF-1 Des1-3 (SEQ ID NO: 8) as tested in Example 1 (ligand)
chain: MRAAAPAVAATLCGAELVDALQFVCGDRGFYFNKPTGYGSSSRRAPQTGIVDECCFRSCDLRRLEMYCAPLKPAKSA
On to B5, for which the “EC50, AKT S473 phosphorylation in DU145 cells” value in experiment [1] was found to be 2.3 nM.
